Here are results for six molecules from patent US20250051465A1 (published 2025).

In experiment [1] the target is T1, full length human LEPR on cells (human, UniProt P48357 22-1165).
T1 sequence: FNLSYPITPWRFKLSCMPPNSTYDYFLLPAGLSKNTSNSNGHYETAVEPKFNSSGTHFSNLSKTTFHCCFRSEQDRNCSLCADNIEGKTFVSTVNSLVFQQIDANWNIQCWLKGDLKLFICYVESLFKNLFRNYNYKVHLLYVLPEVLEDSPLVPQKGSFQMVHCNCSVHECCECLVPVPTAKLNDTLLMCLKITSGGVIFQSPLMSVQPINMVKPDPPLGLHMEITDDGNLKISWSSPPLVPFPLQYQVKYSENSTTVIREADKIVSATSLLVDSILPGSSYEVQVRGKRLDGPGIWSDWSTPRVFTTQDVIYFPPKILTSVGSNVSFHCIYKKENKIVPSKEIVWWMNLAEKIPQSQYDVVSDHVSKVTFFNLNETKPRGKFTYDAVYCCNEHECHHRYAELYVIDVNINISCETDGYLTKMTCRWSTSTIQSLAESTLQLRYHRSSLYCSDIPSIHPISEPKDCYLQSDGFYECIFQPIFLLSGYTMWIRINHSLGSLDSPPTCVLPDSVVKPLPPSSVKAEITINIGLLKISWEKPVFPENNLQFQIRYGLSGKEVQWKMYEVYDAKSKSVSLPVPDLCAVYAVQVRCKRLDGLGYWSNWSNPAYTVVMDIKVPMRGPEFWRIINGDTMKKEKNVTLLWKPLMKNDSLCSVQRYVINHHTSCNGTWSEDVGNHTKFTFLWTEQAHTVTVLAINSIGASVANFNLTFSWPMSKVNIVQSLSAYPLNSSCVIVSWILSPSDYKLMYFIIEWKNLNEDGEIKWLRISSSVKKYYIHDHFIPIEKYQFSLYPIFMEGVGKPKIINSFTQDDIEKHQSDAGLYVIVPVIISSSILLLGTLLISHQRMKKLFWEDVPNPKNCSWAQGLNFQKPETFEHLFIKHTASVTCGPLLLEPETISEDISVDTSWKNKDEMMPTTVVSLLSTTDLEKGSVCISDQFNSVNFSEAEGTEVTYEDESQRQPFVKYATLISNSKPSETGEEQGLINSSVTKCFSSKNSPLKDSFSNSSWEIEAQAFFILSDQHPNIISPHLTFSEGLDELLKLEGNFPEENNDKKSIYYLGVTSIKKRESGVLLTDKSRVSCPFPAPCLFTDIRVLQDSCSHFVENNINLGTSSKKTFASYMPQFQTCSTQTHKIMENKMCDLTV
The experiment is described as follows: cell-based or functional assay.

The target in experiment [2] is mouse LEPR extracellular domain expressed with a C-terminal myc-myc-hexahistidine tag (mLEPR.mmh) (mouse, UniProt P48356 22-839). The experiment is described as follows: SPR, captured mAb, 25C and 37C. Background: SPR reads the build-up and loss of mass on a sensor chip optically.
mouse LEPR extracellular domain expressed with a C-terminal myc-myc-hexahistidine tag (mLEPR.mmh), sequence (P48356 other isoform, or with tags, fused parts or gaps): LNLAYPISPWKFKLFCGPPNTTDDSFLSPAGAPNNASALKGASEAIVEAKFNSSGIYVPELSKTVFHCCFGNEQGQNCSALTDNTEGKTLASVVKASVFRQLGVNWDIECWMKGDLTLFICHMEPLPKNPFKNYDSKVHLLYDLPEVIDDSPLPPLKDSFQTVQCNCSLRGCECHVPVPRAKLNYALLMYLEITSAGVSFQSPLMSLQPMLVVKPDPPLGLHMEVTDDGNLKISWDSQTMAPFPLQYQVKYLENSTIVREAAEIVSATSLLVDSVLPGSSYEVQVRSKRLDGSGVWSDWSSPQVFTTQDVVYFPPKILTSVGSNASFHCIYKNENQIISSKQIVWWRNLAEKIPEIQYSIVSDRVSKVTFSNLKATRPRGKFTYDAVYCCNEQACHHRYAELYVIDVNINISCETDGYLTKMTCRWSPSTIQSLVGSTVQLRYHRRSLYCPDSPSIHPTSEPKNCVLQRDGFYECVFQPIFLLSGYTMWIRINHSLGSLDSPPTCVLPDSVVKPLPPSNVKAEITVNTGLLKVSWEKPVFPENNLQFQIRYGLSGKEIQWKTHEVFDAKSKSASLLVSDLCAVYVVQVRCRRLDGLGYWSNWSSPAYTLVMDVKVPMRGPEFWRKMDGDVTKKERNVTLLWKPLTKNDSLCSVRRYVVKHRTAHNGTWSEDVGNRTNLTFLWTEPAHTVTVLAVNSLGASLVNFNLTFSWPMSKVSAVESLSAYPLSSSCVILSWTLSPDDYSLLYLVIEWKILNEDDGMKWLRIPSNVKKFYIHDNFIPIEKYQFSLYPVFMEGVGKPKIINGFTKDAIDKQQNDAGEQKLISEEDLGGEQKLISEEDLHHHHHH
Experiment [3] has as its target rat LEPR extracellular domain expressed with a C-terminal myc-myc-hexahistidine tag (rLEPR.mmh) (rat, UniProt Q62959 22-839). The experiment can be described thus: SPR, captured mAb, 25C and 37C.
For experiment [4], the target named is T2, human LEPR CRH1 (D1)-MMH (human, UniProt P48357 22-229, limits assumed).
T2 construct: domain: CRH1 (D1); Transiently expressed, captured from supernatant on anti-myc beads
The experiment can be described thus: Luminex, myc-captured LEPR domain. As for the experimental part:
(§1) Aliquots of microspheres with immobilized anti-myc monoclonal antibodies, prepared as described above, were added individually to 1 mL of the each of these protein supernatants. The microspheres were gently mixed, incubated for two hours at 25° C., washed twice with 1 mL of DBPS, centrifuged to remove the supernatant and finally resuspended in 1 mL of DPBS buffer. Forty-eight μL of anti-myc IgG coupled microspheres from individual reactions with full length human LEPR and with each of the human LEPR domain proteins were withdrawn and mixed together in 3.6 mL of PBS+20 mg/mL BSA+0.05% sodium azide (blocking buffer).
(§2) From this mixed pool, 75 μL of microspheres were plated per well on a 96 well filter plate (Millipore, Cat. No: MSBVN1250) and mixed with 25 μL of individual anti-human LEPR monoclonal antibodies (0.5 or 5 µg/mL), incubated for two hours at 25° C. and then washed twice with 200 μL of DPBS with 0.05% Tween 20 (washing buffer). […] After 30 minutes, the samples were washed twice with 200 μL of washing buffer and resuspended in 150 μL of wash buffer. The Median Fluorescence intensity (MFI) of the microspheres was measured in a Luminex Analyzer.

Experiment [5] has as its target T3, human LEPR CRH1 (D1,D2)-MMH (human, UniProt P48357 22-339, limits assumed).
T3 construct: domain: CRH1 (D1,D2); Transiently expressed, captured from supernatant on anti-myc beads
The experiment is described as follows: Luminex, myc-captured LEPR domain. Here is the method:
as §1, §2

In experiment [6] the target is T4, human LEPR CRH1 (D1,D2,D3)-MMH (human, UniProt P48357 22-427, limits assumed).
T4 construct: domain: CRH1-Ig (D1,D2,D3); Transiently expressed, captured from supernatant on anti-myc beads; also called CRH1-Ig (D1, D2, D3)
The experiment can be described thus: Luminex, myc-captured LEPR domain. Here is the method: as §1, §2

Experiment [7] has as its target T5, human LEPR CRH1-Ig (D2,D3)-MMH (human, UniProt P48357 230-427, limits assumed).
T5 construct: domain: CRH1-Ig (D2,D3); Transiently expressed, captured from supernatant on anti-myc beads
The experiment is described as follows: Luminex, myc-captured LEPR domain. As for the experimental part: as §1, §2

Experiment [8] concerns the target T6, human LEPR Ig (D3)-MMH (human, UniProt P48357 340-427, limits assumed).
T6 construct: domain: Ig (D3); Transiently expressed, captured from supernatant on anti-myc beads
The experiment can be described thus: Luminex, myc-captured LEPR domain. Here is the method: as §1, §2

Experiment [9] addresses T7, human LEPR CRH2-MMH (human, UniProt P48357 428-634, limits assumed).
T7 construct: domain: CRH2; Transiently expressed, captured from supernatant on anti-myc beads
The experiment is described as follows: Luminex, myc-captured LEPR domain. As for the experimental part:
as §1, §2

Experiment [10] deals with T8, human LEPR FNIII-MMH (human, UniProt P48357 636-839, limits assumed).
T8 construct: domain: FNIII; Transiently expressed, captured from supernatant on anti-myc beads
T8 sequence (P48357 other isoform, or with tags, fused parts or gaps limits assumed): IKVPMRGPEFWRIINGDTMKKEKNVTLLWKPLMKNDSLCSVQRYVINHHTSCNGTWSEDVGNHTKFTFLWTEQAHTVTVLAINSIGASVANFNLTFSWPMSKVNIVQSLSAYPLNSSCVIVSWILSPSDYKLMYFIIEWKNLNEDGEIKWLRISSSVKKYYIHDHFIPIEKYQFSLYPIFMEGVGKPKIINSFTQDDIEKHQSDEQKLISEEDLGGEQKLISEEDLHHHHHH
The experiment can be described thus: Luminex, myc-captured LEPR domain. Here is the method: as §1, §2

Experiment [11] concerns the target T9, human LEPR Ig-CRH2-FNIII-MMH (human, UniProt P48357 330-839, limits assumed).
T9 construct: domain: Ig-CRH2-FNIII; Transiently expressed, captured from supernatant on anti-myc beads
The experiment can be described thus: Luminex, myc-captured LEPR domain. As for the experimental part:
as §1, §2

T5 sequence (P48357 other isoform, or with tags, fused parts or gaps limits assumed): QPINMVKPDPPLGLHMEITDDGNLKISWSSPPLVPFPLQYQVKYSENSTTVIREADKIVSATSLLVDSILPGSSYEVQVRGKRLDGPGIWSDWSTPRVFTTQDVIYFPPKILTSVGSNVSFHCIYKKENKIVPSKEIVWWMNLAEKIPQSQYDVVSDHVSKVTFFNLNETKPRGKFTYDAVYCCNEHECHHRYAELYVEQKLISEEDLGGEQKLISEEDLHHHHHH
T6 sequence (P48357 other isoform, or with tags, fused parts or gaps limits assumed): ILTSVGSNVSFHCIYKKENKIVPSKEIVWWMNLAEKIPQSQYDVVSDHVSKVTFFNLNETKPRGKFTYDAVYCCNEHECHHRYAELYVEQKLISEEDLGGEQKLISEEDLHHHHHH
T9 sequence (P48357 other isoform, or with tags, fused parts or gaps limits assumed): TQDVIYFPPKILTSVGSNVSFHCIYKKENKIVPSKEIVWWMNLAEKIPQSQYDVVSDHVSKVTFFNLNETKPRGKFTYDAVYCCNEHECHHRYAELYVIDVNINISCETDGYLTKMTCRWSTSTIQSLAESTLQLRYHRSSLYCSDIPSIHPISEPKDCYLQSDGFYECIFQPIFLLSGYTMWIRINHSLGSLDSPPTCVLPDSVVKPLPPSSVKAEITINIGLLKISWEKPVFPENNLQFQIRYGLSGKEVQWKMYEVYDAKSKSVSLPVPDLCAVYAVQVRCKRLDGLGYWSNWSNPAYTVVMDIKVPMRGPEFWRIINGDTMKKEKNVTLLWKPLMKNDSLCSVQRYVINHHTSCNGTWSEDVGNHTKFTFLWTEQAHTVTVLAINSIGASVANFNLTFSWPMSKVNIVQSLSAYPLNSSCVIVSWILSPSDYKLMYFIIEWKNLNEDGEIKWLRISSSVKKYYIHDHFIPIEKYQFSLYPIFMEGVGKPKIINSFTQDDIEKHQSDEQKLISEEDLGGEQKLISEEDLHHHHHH
T7 sequence (P48357 other isoform, or with tags, fused parts or gaps limits assumed): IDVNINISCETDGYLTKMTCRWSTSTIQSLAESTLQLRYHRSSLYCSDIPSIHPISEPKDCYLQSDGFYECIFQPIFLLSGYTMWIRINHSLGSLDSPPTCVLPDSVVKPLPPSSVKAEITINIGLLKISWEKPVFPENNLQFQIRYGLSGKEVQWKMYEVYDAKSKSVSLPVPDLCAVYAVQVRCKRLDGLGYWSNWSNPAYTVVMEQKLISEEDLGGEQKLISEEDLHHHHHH
rat LEPR extracellular domain expressed with a C-terminal myc-myc-hexahistidine tag (rLEPR.mmh), sequence (Q62959 other isoform, or with tags, fused parts or gaps): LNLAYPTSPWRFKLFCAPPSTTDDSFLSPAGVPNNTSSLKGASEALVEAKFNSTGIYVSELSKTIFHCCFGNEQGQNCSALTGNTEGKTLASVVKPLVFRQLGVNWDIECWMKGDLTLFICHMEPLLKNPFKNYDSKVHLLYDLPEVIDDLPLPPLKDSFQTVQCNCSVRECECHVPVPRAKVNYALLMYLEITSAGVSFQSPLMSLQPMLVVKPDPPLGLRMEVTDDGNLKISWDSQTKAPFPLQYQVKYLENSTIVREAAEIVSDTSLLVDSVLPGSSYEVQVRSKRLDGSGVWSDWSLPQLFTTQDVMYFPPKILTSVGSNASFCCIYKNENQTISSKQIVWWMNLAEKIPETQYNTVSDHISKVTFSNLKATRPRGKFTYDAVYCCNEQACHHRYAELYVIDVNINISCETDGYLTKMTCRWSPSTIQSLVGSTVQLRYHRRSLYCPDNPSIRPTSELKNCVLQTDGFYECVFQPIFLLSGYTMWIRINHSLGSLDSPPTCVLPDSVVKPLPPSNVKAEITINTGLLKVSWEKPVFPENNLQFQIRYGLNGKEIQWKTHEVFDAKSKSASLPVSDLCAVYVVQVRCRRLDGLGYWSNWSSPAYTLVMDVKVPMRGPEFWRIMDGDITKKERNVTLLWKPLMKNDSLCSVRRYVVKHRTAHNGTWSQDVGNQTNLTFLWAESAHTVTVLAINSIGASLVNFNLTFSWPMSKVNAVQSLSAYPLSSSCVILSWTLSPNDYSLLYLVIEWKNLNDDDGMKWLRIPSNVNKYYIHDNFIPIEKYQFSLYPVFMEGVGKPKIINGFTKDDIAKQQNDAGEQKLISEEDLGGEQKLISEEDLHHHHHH

B1: H4H18449P2 (antibody, human IgG4, V domains shown)
VH: EVQLVESGGGLVQPGGSLRLSCVASGFTFNKYDMHWVRQTTGKGLEWVSGIDTDGDTYYPGSVKGRFTISRENAENSLYLQMNGLRVGDTAVYYCARWPWSGFYGAFDIWGQGTMVTVSS
VL: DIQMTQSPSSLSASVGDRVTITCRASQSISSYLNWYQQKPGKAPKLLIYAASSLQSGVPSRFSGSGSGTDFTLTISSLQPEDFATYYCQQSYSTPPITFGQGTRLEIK
notes: Fully human antibody with human IgG4 Fc (H4H prefix)
Take B1: the “% activation, with 200 pM human Leptin” value in experiment [1] stood at 66%. The “% activation, without human Leptin” value in experiment [1] worked out at 13%. Besides, the “EC50, STAT3-Luc reporter, with 200 pM human Leptin” value (shortened to “EC50 … with 200 pM human Leptin”) in [1] is 5.23e-11 M. For the same molecule, the “EC50, STAT3-Luc reporter, without human Leptin” value (shortened to “EC50 … without human Leptin”) in [1] came to 0.212 nM. Further, the binding result in experiment [2] and in experiment [3] was “no binding” throughout. Besides, the MFI in [4] was found to be 20 MFI; in [5], 2930 MFI; in experiment [6], 2060 MFI; in experiment [7] it was 42 MFI; in experiment [8] it was 24 MFI; in experiment [9] it was 15 MFI. In addition, the MFI in experiment [10] is 13 MFI; in experiment [11], 43 MFI.

B2: H4H18417P2 (antibody, human IgG4, V domains shown)
VH: QVQLVESGGGVVQPGRSLRLSCAASGFTFSTYGMHWVRQAPGKGLEWVSVISYDESNKYYADSVKGRFTISRDNSKNALYLQMNSLRNEDTAVYYCARDRPFGLVTGWFDPWGQGTLVTVSS
VL: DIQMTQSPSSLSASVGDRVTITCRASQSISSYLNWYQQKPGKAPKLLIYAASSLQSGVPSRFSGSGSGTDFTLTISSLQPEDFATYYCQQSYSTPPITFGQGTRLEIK
notes: as for B1
B2: in experiment [1], the “% activation, with 200 pM human Leptin” value came out at 87%. For the same molecule, the “% activation, without human Leptin” value in experiment [1] was 5%. For the same molecule, the “EC50 … with 200 pM human Leptin” value in experiment [1] turned out to be 5.23e-10 M. In experiment [1], the “EC50 … without human Leptin” value was 0.153 nM. Further, the binding result in experiment [2] and in experiment [3] was “no binding” each time. The MFI in experiment [4] was 10 MFI; in [5], 16000 MFI; in experiment [6], 3330 MFI; in experiment [7], 5500 MFI; in [8], 17 MFI; in experiment [9], 39 MFI. In addition, the MFI in [10] stood at 14 MFI; in [11] it was 37 MFI.

B3: H4H18445P2 (antibody, human IgG4, V domains shown)
VH: QVQLQESGPGLVKPSQTLSLTCTVSGGSISSGGDYWSWIRQLPGKGLEWIGYIYYSGSAYYNPSLKSRGTISIDTSKNQFSLKLTSVTAADTAVYFCVKLRFLEWFLGGWFGPWGQGTLVTVSS
VL: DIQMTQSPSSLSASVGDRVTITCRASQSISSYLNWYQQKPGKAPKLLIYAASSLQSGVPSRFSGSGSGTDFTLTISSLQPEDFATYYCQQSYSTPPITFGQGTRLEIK
notes: as for B1
Turning to B3, the “% activation, with 200 pM human Leptin” value in [1] was 97%. Also, the “% activation, without human Leptin” value in [1] amounted to 5%. In addition, the “EC50 … with 200 pM human Leptin” value in experiment [1] turned out to be 4.1e-10 M. Besides, in experiment [1], the “EC50 … without human Leptin” value was found to be 11.9 nM. Moreover, the binding result in experiment [2] and in experiment [3] was “no binding” each time. The MFI in experiment [4] was found to be 12 MFI; in experiment [5] it was 30 MFI; in experiment [6], 22 MFI; in [7] it was 40 MFI; in experiment [8], 19 MFI; in experiment [9], 17 MFI. Also, the MFI in experiment [10] stood at 230 MFI; in experiment [11] it was 14500 MFI.

B4: H4H18446P2 (antibody, human IgG4, V domains shown)
VH: EVQLVESGGGLVQPGGSLRLSCAASGFTFSNYGMTWVRQAPGKGLEWVSAITGGGGSTYYSNSVKGRFTISRDNSKNTVYLRMNSVRAEDTAVYYCAKYKWNFVDDWGQGTTVTVSS
VL: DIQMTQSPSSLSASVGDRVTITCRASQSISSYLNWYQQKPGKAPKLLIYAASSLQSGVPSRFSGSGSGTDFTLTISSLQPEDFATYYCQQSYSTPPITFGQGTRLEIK
notes: as for B1
Turning to B4, the “% activation, with 200 pM human Leptin” value in experiment [1] was 68%. In experiment [1], the “% activation, without human Leptin” value amounted to 6%. Also, the “EC50 … with 200 pM human Leptin” value in experiment [1] was determined as 3.42e-11 M. For the same molecule, in experiment [1], the “EC50 … without human Leptin” value came to 0.373 nM. In addition, the binding result in experiment [2] and in [3] was “no binding” throughout. The MFI amounted to 17 MFI in experiment [4]; 682 MFI in experiment [5]; 25 MFI in experiment [8]; 65 MFI in experiment [9]; 32 MFI in experiment [10]; 16900 MFI in experiment [11].

B5: H4H16650P2 (antibody, human IgG4, V domains shown)
VH: QVQLVESGGGVVQPGKSLRLSCVASGFTFSSDAMYWVRQAPGKGLEWVAVIYYDGNYQYYEDSVKGRFTISRDNSQNTLDLQMNSLRVDDTAVYFCARLNWDYWYLDLWGRGTLVTVSS
VL: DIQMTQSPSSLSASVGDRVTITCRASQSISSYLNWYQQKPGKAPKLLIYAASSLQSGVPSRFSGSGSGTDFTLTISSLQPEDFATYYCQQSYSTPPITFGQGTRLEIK
notes: as for B1
On to B5, for which, in experiment [1], the “% activation, with 200 pM human Leptin” value was found to be 88%. Also, the “% activation, without human Leptin” value in [1] worked out at 68%. In addition, the “EC50 … with 200 pM human Leptin” value in experiment [1] is 5.19e-11 M. For the same molecule, the “EC50 … without human Leptin” value in [1] was determined as 0.0619 nM. For the same molecule, the binding result in experiment [2] and in experiment [3] was “no binding” throughout. Also, the MFI amounted to 8 MFI in experiment [4]; 4720 MFI in [5]; 2560 MFI in experiment [6]; 74 MFI in experiment [7]; 10 MFI in experiment [8]; 16 MFI in [9]. Besides, the MFI is 6 MFI in experiment [10] and 110 MFI in experiment [11].

B6: H4H18438P2 (antibody, human IgG4, V domains shown)
VH: QVQLVESGGGVVQPGRSLRLSCAASGFSFNTYGMHWVRQAPGKGLEWVTIIWYDGSIKYYADSVKGRFTISRDNSKNTLYLQMNSLRAEDTAVYYCARGGYSGYLYFDYWGQGTLVTVSS
VL: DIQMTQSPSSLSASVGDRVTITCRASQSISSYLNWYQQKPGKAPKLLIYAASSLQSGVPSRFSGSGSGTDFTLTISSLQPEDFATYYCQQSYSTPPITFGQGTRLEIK
notes: as for B1
On to B6, for which, in experiment [1], the “% activation, with 200 pM human Leptin” value came to 76%. Further, the “% activation, without human Leptin” value in experiment [1] amounted to 5%. For the same molecule, the “EC50 … with 200 pM human Leptin” value in [1] was 2.02e-11 M. Further, the “EC50 … without human Leptin” value in [1] was 1.49 nM. The binding result in [2] and in experiment [3] was “no binding” throughout. Moreover, the MFI in experiment [4] is 13 MFI; in experiment [5], 18900 MFI; in experiment [6] it was 6570 MFI; in experiment [7], 8880 MFI; in [8], 30 MFI; in [9] it was 165 MFI. The MFI in experiment [10] amounted to 25 MFI; in [11], 468 MFI.
